Measurements published in the RNAGym collection of RNA variant scans (doi:10.7554/elife.80360).

B1: HDV Ribozyme (parent)
chain: GGCCGGCAUGGUCCCAGCCUCCUCGCUGGCGCCGGCUGGGCAACAUUCCGAGGGGACCGUCCCCUCGGUAAUGGCGAAUGGGACCCA

Variants of: B1
Test: self-cleavage, relative activity (ratio to wild type); higher = more cleavage; co-transcriptional

Variant | self-cleavage
GGCCAGCAUGGUCCCAGCCUCCUCGCUGGCGCCGGCUGGGCAACAUUCCGAGGGGACCGUCCCCUCGGUAAUGACGAAUGGGACCCA [G5A G74A] | 0.0326
GGCCAGCAUGGUCCCAGCCUCCUCGCUGGCGCCGGCUGGGCAACAUUCCGAGGGGACCGUCCCCUCGGUAAUGGCGAAUGGGACGCA [G5A C85G] | 0.147
GGCCAGCAUGGUCCCAGCCUCCUCGCUGGCGCCGGCUGGGCAACAUUCCGAGGGGACCGUCCCCUCGGUAAUUGCGAAUGGGACCCA [G5A G73U] | 0.108
GGCCAGCAUGGUCCCAGCCUCCUCGCUGGCGCCGGCUGGGCAACAUUCCGAGGGGACCGUCCCCUCGGUAAUAGCGAAUGGGACCCA [G5A G73A] | 0
GGCCAGCAUGGUCCCAGCCUCCUCGCUGGCGCCGGCUGGGCAACAUUCCGAGGGGACCGUCCCCUCGGUAAUCGCGAAUGGGACCCA [G5A G73C] | 0.268
GGCCAGCAUGGUCCCAGCCUCCUCGCUGGCGCCGGCUGGGCAACAUUUCGAGGGGACCGUCCCCUCGGUAAUGGCGAAUGGGACCCA [G5A C48U] | 0.0405
GGCCAGCAUGGUCCCAGCCUCCUCGCUGGCGCCGGCUGGGCAACAUUCCGAGGGGACCGUCCCCUGGGUAAUGGCGAAUGGGACCCA [G5A C66G] | 0.244
GGCCAGCAUGGUCCCAGCCUCCUCGCUGGCGCCGGCUGGGCAACAUUCCGAGGGGACCGUCCCCUUGGUAAUGGCGAAUGGGACCCA [G5A C66U] | 0.305
GGCCAGCAUGGUCCCAGCCUCCUCGCUGGCGACGGCUGGGCAACAUUCCGAGGGGACCGUCCCCUCGGUAAUGGCGAAUGGGACCCA [G5A C32A] | 0
GGCCAGCAUGGUCCCAGCCUCCUCGCUGGCGGCGGCUGGGCAACAUUCCGAGGGGACCGUCCCCUCGGUAAUGGCGAAUGGGACCCA [G5A C32G] | 0.248
GGCCAGCAUGGUCCCAGCCUCCUCGCUGGCGUCGGCUGGGCAACAUUCCGAGGGGACCGUCCCCUCGGUAAUGGCGAAUGGGACCCA [G5A C32U] | 0.198
GGCCAGCAUGGUCCCAGCCUCCUCGCUGGCGCCGGCUGGGCAACAUUCCGAGGGGACCGUCACCUCGGUAAUGGCGAAUGGGACCCA [G5A C62A] | 0
GGCCAGCAUGGUCCCAGCCUCCUCGCUGGCGCCGGCUGGGCAACAUUCCGAGGGGACCGUCUCCUCGGUAAUGGCGAAUGGGACCCA [G5A C62U] | 0.16
GGCCAGCAUGGUCCCAGCCUCCUCGCUGGCGCCGGCUGGGCAAGAUUCCGAGGGGACCGUCCCCUCGGUAAUGGCGAAUGGGACCCA [G5A C44G] | 0.0369
GGCCAGCAUGGUCCCAGCCUCCUCGCUGGCGCCGCCUGGGCAACAUUCCGAGGGGACCGUCCCCUCGGUAAUGGCGAAUGGGACCCA [G5A G35C] | 0.119
GGCCAGCAUGGUCCCAGCCUCCUCGCUGGCGCCGACUGGGCAACAUUCCGAGGGGACCGUCCCCUCGGUAAUGGCGAAUGGGACCCA [G5A G35A] | 0.0692

Variant | self-cleavage
GGCCAGCAUGGUCCCAGCCUCCUCGCUGGCGCCGGUUGGGCAACAUUCCGAGGGGACCGUCCCCUCGGUAAUGGCGAAUGGGACCCA [G5A C36U] | 0.18
GGCCAGCAUGGUCCCAGCCUCCUCGCUGGCGCCGGAUGGGCAACAUUCCGAGGGGACCGUCCCCUCGGUAAUGGCGAAUGGGACCCA [G5A C36A] | 0.0627
GGCCAGCAUGGUCCCAGCCUCCUCGCUGGCGCCGGCUGGGCAACAUUCCGAGGGGAGCGUCCCCUCGGUAAUGGCGAAUGGGACCCA [G5A C57G] | 0.138
GGCCAGCAUGGUCCCAGCCUCCUCGCUGGCGCCGGCUGGGCAACAUUCCGAGGGGAUCGUCCCCUCGGUAAUGGCGAAUGGGACCCA [G5A C57U] | 0.106
GGCCAGCAUGGUCCCAGCCUCCUCGCUGGCGCCGGCUGGGCAACAUUCCGAGGGGAACGUCCCCUCGGUAAUGGCGAAUGGGACCCA [G5A C57A] | 0.0449
GGCCAGCAUGGUCCCAGCCUCCUCGCUGGCGCCGGCUGGGCAACAUUCCGAGAGGACCGUCCCCUCGGUAAUGGCGAAUGGGACCCA [G5A G53A] | 0.248
GGCCAGCAUGGUCCCAGCCUCCUCGCUGGCGCCGGCUGGGCAACAUUCCGAGCGGACCGUCCCCUCGGUAAUGGCGAAUGGGACCCA [G5A G53C] | 0.302
GGCCAGCAUGGUCCCAGCCUCCUCGCUGGCCCCGGCUGGGCAACAUUCCGAGGGGACCGUCCCCUCGGUAAUGGCGAAUGGGACCCA [G5A G31C] | 0.095
GGCCAGCAUGGUCCCAGCCUCCUCGCUGGCGCCGGCUGGGCAACAUUCCGAGGGGACCGUCCCCUCGUUAAUGGCGAAUGGGACCCA [G5A G68U] | 0.146
GGCCAGCAUGGUCCCAGCCUCCUCGCUGGCGCCGGCUGGGCAACAUUCCGAGGGGACCGUCCCCUCGGUAAUGGCGAAUGGGAACCA [G5A C84A] | 0.172
GGCCAGCAUGGUCCCAGCCUCCUCGCUGGCGCCGGCUGGGCAACAUUCCGAGGGGACCGUCCCCUCGGUAAUGGCGAAUGGGAUCCA [G5A C84U] | 0.117
GGCCAGCAUGGUCCCAGCCUCCUCGCUGGCGCCGGCUGGGCAACAUUCCCAGGGGACCGUCCCCUCGGUAAUGGCGAAUGGGACCCA [G5A G50C] | 0.225
GGCCAGCAUGGUCCCAGCCUCCUCGCUGGCGCCGGCUCGGCAACAUUCCGAGGGGACCGUCCCCUCGGUAAUGGCGAAUGGGACCCA [G5A G38C] | 0.208
GGCCAGCAUGGUCCCAGCCUCCUCGCUGGCGCCGGCUGGGCAACAUUCCGAGGGGACGGUCCCCUCGGUAAUGGCGAAUGGGACCCA [G5A C58G] | 0.119
GGCCAGCAUGGUCCCAGCCUCCUCGCUGGCGCCGGCUGGGCAACAUUCCGAGGGGACUGUCCCCUCGGUAAUGGCGAAUGGGACCCA [G5A C58U] | 0.252
GGCCAGCAUGGUCCCAGCCUCCUCGCUGGCGCCGGCUGGGCAACAUUCCGAGGGGACAGUCCCCUCGGUAAUGGCGAAUGGGACCCA [G5A C58A] | 0.253
